Results reported in paper PMC2901902 (Nature, 2010).

Target: human DPF3b PHD12 (tandem PHD finger) (Homo sapiens, UniProt Q92784)
Assay: DPF3b PHD12 binding to modified histone peptides
Conditions: H3 peptide residues 1–20, versus H3K14ac

Sequence of human DPF3b PHD12 (tandem PHD finger) (Q92784 261-372): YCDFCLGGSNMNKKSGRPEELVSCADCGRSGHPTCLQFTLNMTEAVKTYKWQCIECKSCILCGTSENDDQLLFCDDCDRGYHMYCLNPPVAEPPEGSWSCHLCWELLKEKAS

## H3 peptide (residues 1–20): H3 peptide (residues 1–20), not acetylated at K14
  reduction in affinity when H3 is not acetylated at K14: 4 fold
